Measurements as given in patent publication US20080213256A1 (MICROMET, published 2008).

Tests used:
EpCAM [1] = target: T1, EpCAM (UniProt P16422 24-314, limits assumed); assay: FACS on KatoIII cells, detection via His tag
T1 construct: whole, on cells; also called EpCAM on EpCAM positive Kato III cells
T1 sequence (looked up): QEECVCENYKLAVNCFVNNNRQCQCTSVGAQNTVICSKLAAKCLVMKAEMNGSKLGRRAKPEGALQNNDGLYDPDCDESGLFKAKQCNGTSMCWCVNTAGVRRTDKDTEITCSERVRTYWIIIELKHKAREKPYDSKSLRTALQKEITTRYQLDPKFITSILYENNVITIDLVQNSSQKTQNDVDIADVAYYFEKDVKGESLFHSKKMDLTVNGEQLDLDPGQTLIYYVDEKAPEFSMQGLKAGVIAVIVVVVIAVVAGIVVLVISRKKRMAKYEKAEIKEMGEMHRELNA

human CD3 complex = human CD3 complex (human, UniProt P07766 23-207; P04234 22-171; P09693 23-182); assay: cell-based or functional assay
CD19 = target: T2, CD19 (human, UniProt P15391 20-556); assay: FACS on Nalm6 cells, detection via His tag
T2 construct: whole, on cells; also called CD19 on CD19 positive Nalm 6 cells; NALM-6
T2 sequence (looked up): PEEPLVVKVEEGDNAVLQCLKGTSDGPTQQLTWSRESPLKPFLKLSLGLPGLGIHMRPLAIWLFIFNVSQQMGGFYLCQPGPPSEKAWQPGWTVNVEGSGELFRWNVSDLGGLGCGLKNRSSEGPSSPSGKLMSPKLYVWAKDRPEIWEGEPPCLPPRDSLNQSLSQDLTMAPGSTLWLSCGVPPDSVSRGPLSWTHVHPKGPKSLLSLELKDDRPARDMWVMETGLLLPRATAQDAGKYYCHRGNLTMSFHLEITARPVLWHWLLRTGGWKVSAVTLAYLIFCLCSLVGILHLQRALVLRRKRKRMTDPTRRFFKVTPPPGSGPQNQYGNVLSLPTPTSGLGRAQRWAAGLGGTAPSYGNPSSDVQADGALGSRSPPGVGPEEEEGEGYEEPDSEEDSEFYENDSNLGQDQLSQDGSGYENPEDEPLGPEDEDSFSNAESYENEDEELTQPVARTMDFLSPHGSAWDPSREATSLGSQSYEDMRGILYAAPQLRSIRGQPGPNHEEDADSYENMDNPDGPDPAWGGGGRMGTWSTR
Protocol: CD19 positive Nalm 6 cells (human B cell precursor leukaemia) and CD3 positive Jurkat cells (human T cell leukemia) were used. 200,000 Nalm 6 cells and 200,000 Jurkat cells were incubated with 50 μl the pure cell culture supernatant of CHO cells transfected with the anti-CD19xhum. anti-CD3 specific polypeptide for 30 min on ice. The cells were washed twice in PBS. Then the binding of the construct was detected via its C-terminal Histidin Tag with a murine Penta H is antibody (diluted 1:20 in 50 μl PBS with 2% FCS; Qiagen) followed by a washing step and a Phycoerythrin conjugated Fc gamma specific antibody (Dianova), diluted 1:100 in 50 μl PBS with 2% FCS (FIG. 2A, thick line). As negative control fresh cell culture medium instead of cell culture supernatant was used (FIG. 2, thin line).
Cells were analysed by flow cytometry on a FACS-Calibur (Becton Dickinson, Heidelberg). FACS staining and measuring of the fluorescence intensity were performed as described in Current Protocols in Immunology (Coligan, Kruisbeek, Margulies, Shevach and Strober, Wiley-Interscience, 2002). The binding activity of the bispecific binding molecule was compared to the binding activity of the corresponding control bispecific antibody with the humanized OKT3 part as described in prior art.

EpCAM [2] = target: T1, EpCAM; assay: FACS on Kato III cells, CHO supernatant (FIG. 2C)

B1: bispecific anti-EpCAM (3-1)x hum. anti-CD3 antibody construct (SEQ ID NO.: 34) (bispecific antibody)
chain: ELVMTQSPSYLAASPGETITINCRASKSISKYLAWYQEKPGKTNKLLIYSGSTLQSGIPSRFSGSGSGTDFTLTISSLEPEDFAMYYCQQHNEYPYTFGGGTKLEIKGGGGSGGGGSGGGGSEVQLLEQSGAELVKPGASVKISCKASGYAFTNYWLGWVKQRPGHGLEWIGDLFPGSGNTHYNERFRGKATLTADKSSSTAFMQLSSLTSEDSAVYFCARLRNWDEAMDYWGQGTTVTVSSGGGGSQVQLVQSGGGVVQPGRSLRLSCKSSGYTFTRYTMHWVRQAPGKGLEWIGYINPSRGYTNYNQKVKDRFTISRDNSKNTAFLQMDSLRPEDTGVYFCARYYDDHYCLDYWGQGTPVTVSSVEGGSGGSGGSGGSGGVDDIQMTQSPSSLSASVGDRVTITCRASSSVSYMNWYQQTPGKAPKRWIYDTSKVASGVPSRFSGSGSGTDYTFTISSLQPEDIATYYCQQWSSNPLTFGQGTKLQIT
notes: Bispecific single chain Fv, tested as CHO culture supernatant
Question: Does B1 bind (EpCAM [1])?
Answer: binds

B2: bispecific anti-CD19xhum. anti-CD3 antibody construct (SEQ ID NO.: 20) (bispecific antibody)
chain: DIQLTQSPASLAVSLGQRATISCKASQSVDYDGDSYLNWYQQIPGQPPKLLIYDASNLVSGIPPRFSGSGSGTDFTLNIHPVEKVDAATYHCQQSTEDPWTFGGGTKLEIKGGGGSGGGGSGGGGSQVQLQQSGAELVRPGSSVKISCKASGYAFSSYWMNWVKQRPGQGLEWIGQIWPGDGDTNYNGKFKGKATLTADESSSTAYMQLSSLASEDSAVYFCARRETTTVGRYYYAMDYWGQGTTVTVSSGGGGSQVQLVQSGGGVVQPGRSLRLSCKSSGYTFTRYTMHWVRQAPGKGLEWIGYINPSRGYTNYNQKVKDRFTISRDNSKNTAFLQMDSLRPEDTGVYFCARYYDDHYCLDYWGQGTPVTVSSVEGGSGGSGGSGGSGGVDDIQMTQSPSSLSASVGDRVTITCRASSSVSYMNWYQQTPGKAPKRWIYDTSKVASGVPSRFSGSGSGTDYTFTISSLQPEDIATYYCQQWSSNPLTFGQGTKLQIT
notes: Bispecific single chain Fv made in CHO cells; FACS used raw culture supernatant; the cytotoxicity assay used purified protein; also called anti-CD19xhum. anti-CD3 (improved hum. OKT3); bispecific humanized improved CD3 (hum. anti-CD3)
Question: For B2, which “cytotoxic activity (EC50), calcein release from NALM-6 target cells with CD4-positive CB15 T-cells” value (human CD3 complex) is on record?
Answer: 50 pg/mL

Question: Does B2 bind (CD19)?
Answer: binds

B3: bispecific anti-EpCAM (5-10)x hum. anti-CD3 antibody construct (SEQ ID NO.: 36) (bispecific antibody)
chain: ELVMTQSPSSLTVTAGEKVTMSCKSSQSLLNSGNQKNYLTWYQQKPGQPPKLLIYWASTRESGVPDRFTGSGSGTDFTLTISSVQAEDLAVYYCQNDYSYPLTFGAGTKLEIKGGGGSGGGGSGGGGSEVQLLEQSGAELVRPGTSVKISCKASGYAFTNYWLGWVKQRPGHGLEWIGDIFPGSGNIHYNEKFKGKATLTADKSSSTAYMQLSSLTFEDSAVYFCARLRNWDEPMDYWGQGTTVTVSSGGGGSQVQLVQSGGGVVQPGRSLRLSCKSSGYTFTRYTMHWVRQAPGKGLEWIGYINPSRGYTNYNQKVKDRFTISRDNSKNTAFLQMDSLRPEDTGVYFCARYYDDHYCLDYWGQGTPVTVSSVEGGSGGSGGSGGSGGVDDIQMTQSPSSLSASVGDRVTITCRASSSVSYMNWYQQTPGKAPKRWIYDTSKVASGVPSRFSGSGSGTDYTFTISSLQPEDIATYYCQQWSSNPLTFGQGTKLQIT
notes: as for B1
Question: Does B3 bind (EpCAM [2])?
Answer: binds
